Assay results as given in patent US9745384B2, “Peptides useful for modulating histone demethylase function” (The Brigham and Women's Hospital, Inc., priority 2012, dated 2017).

Key:
His-LSD2 = target: T1, His-LSD2 (Homo sapiens, UniProt Q8NB78); test: Nucleosome demethylation assay (NPAC cofactor activity for LSD2, immunoblot); assay type: biochemical; conditions: for Cofactor activity: stimulation of LSD2 demethylation of nucleosomal H3K4me2: threshold dosage of His-LSD2, nucleosomes purified from HeLa
T1 construct: typically 0.5 μg full-length His-LSD2; made in house; host or cells: Sf9 insect cells
T1 sequence (Q8NB78 1-822): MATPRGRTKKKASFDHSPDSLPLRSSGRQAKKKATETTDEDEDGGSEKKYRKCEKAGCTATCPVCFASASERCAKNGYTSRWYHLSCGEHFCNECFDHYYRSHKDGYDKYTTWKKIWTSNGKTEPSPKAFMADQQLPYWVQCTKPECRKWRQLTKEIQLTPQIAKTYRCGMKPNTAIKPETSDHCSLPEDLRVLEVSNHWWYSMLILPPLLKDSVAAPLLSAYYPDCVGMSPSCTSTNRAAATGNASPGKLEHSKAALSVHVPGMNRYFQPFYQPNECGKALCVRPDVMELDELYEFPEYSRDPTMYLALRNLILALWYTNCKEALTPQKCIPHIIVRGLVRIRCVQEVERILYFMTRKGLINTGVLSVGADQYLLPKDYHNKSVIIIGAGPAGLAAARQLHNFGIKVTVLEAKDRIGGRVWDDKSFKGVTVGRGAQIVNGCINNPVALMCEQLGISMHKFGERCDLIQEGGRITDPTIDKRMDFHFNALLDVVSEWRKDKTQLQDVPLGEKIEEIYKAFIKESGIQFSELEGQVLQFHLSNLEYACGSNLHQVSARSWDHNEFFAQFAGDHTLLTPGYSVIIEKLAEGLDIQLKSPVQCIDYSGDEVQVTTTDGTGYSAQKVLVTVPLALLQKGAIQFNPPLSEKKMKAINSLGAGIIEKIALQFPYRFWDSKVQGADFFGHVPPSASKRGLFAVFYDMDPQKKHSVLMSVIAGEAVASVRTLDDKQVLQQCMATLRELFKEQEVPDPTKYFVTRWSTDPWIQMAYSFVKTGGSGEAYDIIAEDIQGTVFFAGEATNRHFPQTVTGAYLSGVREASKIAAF
Procedure: For nucleosome demethylation assays, typically 0.5 μg full-length His-LSD2, 1 μg NPAC protein or peptides, and 2 μg nucleosomes purified from HeLa were used, and demethylation efficiency was analyzed by SDS-PAGE electrophoresis and immunoblot using methylation specific anti-histone H3 antibodies as previously described (Shi et al. 2004).

LSD1 = LSD1 (Homo sapiens, UniProt O60341); test: LSD1-mediated nucleosome demethylation assay; assay type: biochemical; conditions: 2 μg LSD1 with 5 μg cofactor protein
Procedure: (§1) FIG. 7A depicts the determination of the threshold dosage of purified LSD2 required for nucleosomal H3K4 demethylation. 2 μg of nucleosomes purified from HeLa were incubated with various amount of His-LSD2 proteins for 2 hours at 30° C. The demethylation reactions were analyzed by immunoblotting using indicated antibodies. […] 2 μg LSD1 in combination with 5 μg purified NPAC or CoREST protein was used for histone demethylase assays. […] Transfected cells are marked by arrows; cells shown significant reduction of H3K4me1 are marked by dotted circles. […] In contrast, coexpression of LSD2 and NPAC induces obvious global decrease of H3K4me1. […] FIG. 7D depicts immunofluorescence analyses of H3K9me2 demethylation in cells coexpressing LSD2 and full-length NPAC.

[1] = test system: nucleosomes purified from HeLa; test: Nucleosome pulldown by GST-NPAC proteins; assay type: binding
Procedure: Nucleosomes were purified from HeLa as previously described (Umlauf et al., 2004). To examine nucleosome binding selectivity of NPAC, 5 μg GST fusion protein bound to glutathione agarose were incubated with 20 μg nucleosomes overnight at 4° C. in nucleosome binding buffer (50 mM NaPO4 pH 7.4, 200 mM NaCl, 0.5% NP-40, 5% glycerol, 10 μM ZnSO4, 1 mM MgCl2, 1 mM DTT, 0.1 mM PMSF). After washing 4 times with the same buffer at 4° C., the beads were boiled in 1×SDS sample loading buffer and elute was resolved by 15% SDS-PAGE for immunoblot analysis or coomassie staining.
For free-DNA competition assays, human genomic DNA was purified from HeLa cells and fragmented to an average size around 300 bp by sonication. Equal amounts of GST-NPAC.d5 bound to glutathione beads were pre-incubated with 0, 5, 10, 25 μg genomic DNA fragments in nucleosome binding buffer for 30 minutes at room temperature, and equal amounts of nucleosomes were added and incubated overnight at 4° C. After extensive washing, GST-NPAC.d5 and bound nucleosomes were eluted by boiling in 1×SDS sample loading buffer, resolved by SDS-PAGE and stained with coomassie blue.

LSD2 = target: T2, LSD2 (Homo sapiens, UniProt Q8NB78); test: Immunofluorescence of histone methylation in cells coexpressing LSD2 and NPAC; assay type: cell-based; parameters: expressed in transfected cells; host or cells: U2OS
T2 sequence (Q8NB78 1-822): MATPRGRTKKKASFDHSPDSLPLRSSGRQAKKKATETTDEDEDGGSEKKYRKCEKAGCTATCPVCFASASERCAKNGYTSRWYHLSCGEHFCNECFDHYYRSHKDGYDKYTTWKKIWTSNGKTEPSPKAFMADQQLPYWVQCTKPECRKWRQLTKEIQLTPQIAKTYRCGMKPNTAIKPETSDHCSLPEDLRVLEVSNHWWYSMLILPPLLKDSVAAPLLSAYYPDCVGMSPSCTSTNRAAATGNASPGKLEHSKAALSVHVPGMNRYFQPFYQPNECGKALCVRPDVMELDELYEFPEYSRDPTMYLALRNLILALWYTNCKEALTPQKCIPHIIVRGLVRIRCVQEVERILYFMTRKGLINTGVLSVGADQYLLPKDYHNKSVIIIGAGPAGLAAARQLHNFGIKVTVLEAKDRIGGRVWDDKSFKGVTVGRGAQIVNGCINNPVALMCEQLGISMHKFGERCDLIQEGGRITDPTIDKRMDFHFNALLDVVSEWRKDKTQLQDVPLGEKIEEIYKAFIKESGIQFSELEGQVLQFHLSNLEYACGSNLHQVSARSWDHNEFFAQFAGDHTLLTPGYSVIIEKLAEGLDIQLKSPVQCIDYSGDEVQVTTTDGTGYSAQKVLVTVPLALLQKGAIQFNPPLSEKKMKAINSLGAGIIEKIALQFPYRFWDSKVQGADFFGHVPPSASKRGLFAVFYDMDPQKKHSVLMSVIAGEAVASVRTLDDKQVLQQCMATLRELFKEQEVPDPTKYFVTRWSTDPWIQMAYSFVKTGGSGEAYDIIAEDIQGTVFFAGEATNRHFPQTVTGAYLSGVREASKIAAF
Procedure: FIG. 1A depicts a schematic of NPAC domain structure. AT, AT-hook motif. PWWP, Pro-Trp-Trp-Pro domain (SEQ ID NO: 63). […] Tandem affinity purified NPAC and LSD2 complexes were incubated with nucleosomes purified from HeLa, and analyzed by immunoblot using indicated antibodies. […] The amount of LSD2 enzyme and NPAC cofactor proteins used in each reaction is indicated. Demethylation was assessed by Immunoblot using indicated antibodies. […] Representatives with similar levels of GFP-LSD2 are shown. See also FIGS. 7A-7D.
as §1

Cofactor activity: stimulation of LSD2 demethylation of nucleosomal H3K4me2 (His-LSD2; listed as wild-type NPAC): robust activity | Nucleosome binding (GST-pulldown) [1]: binds strongly with purified nucleosomes | Change of H3K9me2 and other histone marks in cells (LSD2; coexpression of NPAC and LSD2): no detectable changes
B1: NPAC: full-length human NPAC/GLYR1 (protein ID: Q49A26), recombinant, LSD2 cofactor (protein)
chain: MAAVSLRLGDLVWGKLGRYPPWPGKIVNPPKDLKKPRGKKCFFVKFFGTEDHAWIKVEQLKPYHAHKEEMIKINKGKRFQQAVDAVEEFLRRAKGKDQTSSHNSSDDKNRRNSSEERSRPNSGDEKRKLSLSEGKVKKNMGEGKKRVSSGSSERGSKSPLKRAQEQSPRKRGRPPKDEKDLTIPESSTVKGMMAGPMAAFKWQPTASEPVKDADPHFHHFLLSQTEKPAVCYQAITKKLKICEEETGSTSIQAADSTAVNGSITPTDKKIGFLGLGLMGSGIVSNLLKMGHTVTVWNRTAEKCDLFIQEGARLGRTPAEVVSTCDITFACVSDPKAAKDLVLGPSGVLQGIRPGKCYVDMSTVDADTVTELAQVIVSRGGRFLEAPVSGNQQLSNDGMLVILAAGDRGLYEDCSSCFQAMGKTSFFLGEVGNAAKMMLIVNMVQGSFMATIAEGLTLAHVTGQSQQTLLDILNQGQLASIFLDQKCQNILQGNFKPDFYLKYIQKDLRLAIALGDAVNHPTPMAAAANEVYKRAKALDQSDNDMSAVYRAYIH
Demethylase activity of NPAC itself (His-LSD2; NPAC alone, without LSD2): no demethylase activity | Cofactor activity: stimulation of LSD2 demethylation of nucleosomal H3K4me2 (His-LSD2; listed as His-NPAC): stimulated LSD2 activity in a dose-dependent manner | Stimulation of LSD1 nucleosome demethylation (LSD1): no stimulatory effect on nucleosome demethylation by LSD1 | Depletion of di- and mono-methylated H3K4 in cells (LSD2; coexpression of NPAC and LSD2 vs LSD2 alone, U2OS): much more pronounced depletion of di- and mono-methylated H3K4 in cells than expressing LSD2 alone
